Substrate in the data set: NCCc1c[nH]c2ccc(O)cc12
Kind of data set: HPLC-fluorescence detection of N-acetylserotonin; Lineweaver-Burk plot. It is filed as biochemical, Pyropia yezoensis. The settings on record: acetyl-CoA co-substrate (0.5 mM in standard assay), 100 mM potassium phosphate pH 8.8, 55 °C.

B1: PySNAT (Pyropia yezoensis; I2V) (protein)
chain: MVFWKNFFQNSNINASSEKNFKKLIVLDKTCDKIEFKDIYLSSNKNINLYELEQLCDSVGWVKRPLKKVKIALKNSSIIISLIQKKDANSKLVGFARATSDNGFNATIWDVVIHPDFQGLGLGKVVIHQLIQQLRQAEISTITLFAEPDVVSFYKKLGFIKDPDGVKGMFWYPR
notes: full-length chloroplast-encoded protein, 174 aa, calculated 20099 Da, C-terminal His tag kept (pET28b NcoI/XhoI), E. coli BL21(DE3), Ni-NTA; no transit peptide; I2V read from the printed NcoI forward primer (ATG GTC for native ATG ATC)
For the protein B1, the Km was 467 µM.

For orientation: Km means the concentration of substrate that gives half-maximal velocity.

For the origin of these results see publication PMC4321536, “Chloroplast-encoded serotonin N-acetyltransferase in the red alga Pyropia yezoensis: gene transition to the nucleus from chloroplasts” (Journal of Experimental Botany, 2014).
